Experimental data reported in patent US20230192899A1 (published 2023).

How the values were obtained:
[1] = target: T1, mouse membrane-presented CD47 on Tg32 mouse erythrocytes (mouse, UniProt Q61735 19-303); assay: flow cytometry on Tg32 mouse erythrocytes (FIG. 21)
T1 construct: whole, on cells
T1 sequence (looked up): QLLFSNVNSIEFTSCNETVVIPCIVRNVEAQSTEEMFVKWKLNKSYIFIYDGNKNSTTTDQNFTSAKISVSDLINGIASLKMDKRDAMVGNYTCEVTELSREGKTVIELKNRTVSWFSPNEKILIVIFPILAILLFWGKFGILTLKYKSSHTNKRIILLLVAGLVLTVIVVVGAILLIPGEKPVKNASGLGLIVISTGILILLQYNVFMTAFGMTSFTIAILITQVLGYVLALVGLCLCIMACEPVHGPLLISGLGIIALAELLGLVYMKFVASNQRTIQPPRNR

[2] = target: human CD47 on cells (human erythrocytes, MCF-7, BT-474) (human, UniProt Q08722 19-323); assay: cell-based or functional assay
[3] = target: T2, soluble human CD47 ectodomain protein (human, UniProt Q08722 19-139); assay: SPR (Biacore), IgG captured via anti-Fc; run at end
T2 construct: also called hCD47; huCD47

[4] = target: T2, soluble human CD47 ectodomain protein; assay: SPR (Biacore), IgG captured via anti-Fc; run at beginning
[5] = target: T3, human CD47 protein (ELISA coat) (human, UniProt Q08722 19-139); assay: direct binding ELISA (FIG. 7C)
T3 construct: also called hCD47

[6] = target: human C-MET protein (ELISA coat) (human, UniProt P08581 25-932); assay: direct binding ELISA (FIG. 7C)
Chain of human C-MET protein (ELISA coat) (P08581 25-932 limits assumed): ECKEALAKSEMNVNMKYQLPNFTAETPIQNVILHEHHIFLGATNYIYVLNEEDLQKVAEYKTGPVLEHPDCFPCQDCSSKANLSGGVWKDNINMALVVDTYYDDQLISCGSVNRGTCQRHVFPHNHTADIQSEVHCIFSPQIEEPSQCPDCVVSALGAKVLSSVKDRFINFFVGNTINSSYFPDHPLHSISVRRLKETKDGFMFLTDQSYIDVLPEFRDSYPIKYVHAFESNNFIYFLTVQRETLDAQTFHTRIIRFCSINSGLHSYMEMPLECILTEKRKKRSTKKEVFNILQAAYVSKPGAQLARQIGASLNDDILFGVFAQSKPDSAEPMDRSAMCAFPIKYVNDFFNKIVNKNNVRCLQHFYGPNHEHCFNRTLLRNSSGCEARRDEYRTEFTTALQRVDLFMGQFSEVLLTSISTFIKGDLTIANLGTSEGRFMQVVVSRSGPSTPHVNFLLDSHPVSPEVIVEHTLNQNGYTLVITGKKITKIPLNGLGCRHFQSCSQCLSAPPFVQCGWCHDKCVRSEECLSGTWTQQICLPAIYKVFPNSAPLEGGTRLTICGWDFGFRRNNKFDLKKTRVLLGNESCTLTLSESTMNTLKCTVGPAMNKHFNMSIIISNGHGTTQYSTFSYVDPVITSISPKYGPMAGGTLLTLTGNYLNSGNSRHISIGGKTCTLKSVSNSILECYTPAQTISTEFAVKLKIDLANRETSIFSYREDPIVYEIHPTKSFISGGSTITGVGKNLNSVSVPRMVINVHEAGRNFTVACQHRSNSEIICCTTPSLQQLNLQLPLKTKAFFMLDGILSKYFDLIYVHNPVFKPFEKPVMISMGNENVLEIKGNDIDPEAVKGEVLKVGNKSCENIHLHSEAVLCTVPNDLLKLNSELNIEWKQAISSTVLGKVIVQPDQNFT

B1: Fab^2 Met47 LHL-LHL (as used in the Tg32 mouse studies) (bispecific antibody, not shown: a dimerising Fc or GST)
heavy: QVQLVQSGAEVKKPGASVKVSCKASGYTFTSYTMHWVRQAPGQGLEWMGIINPSGGSTSYAQKFQGRVTMTRDTSTSTVYMELSSLRSEDTAVYYCARQEITTEFDYWGQGTLVTVSSASTKGPSVFPLAPSSKSTSGGTAALGCLVKDYFPEPVTVSWNSGALTSGVHTFPAVLQSSGLYSLSSVVTVPSSSLGTQTYICNVNHKPSNTKVDKKVEPKSCGPAPELLGGGSQVQLVQSGAEVKKPGESLKISCKGSGYTFTNYYIFWVRQMPGKGLEWMGIINPVDGDTNYNPSFQGQVTISADKSISTAYLQWSSLKASDTAMYYCARGGYTMDRWGQGTLVTVSS
light: EIVLTQSPGTLSLSPGERATLSCRASQSVSSYANSYLHWYQQKPGQAPRLLIYRGSTRESGIPDRFSGSGSGTDFTLTISRLEPEDFAVYYCQQSKSEPLTFGGGTKVEIKRTVAAPSVFIFPPSDEQLKSGTASVVCLLNNFYPREAKVQWKVDNALQSGNSQESVTEQDSKDSTYSLSSTLTLSKADYEKHKVYACEVTHQGLSSPVTKSFNRGECGPAPELLGGGSDIVMTQSPLSLPVTPGEPASISCRSSQSLLHSNGYNYLHWYLQKPGQSPQLLIYKVSNRLSGVPDRFSGSGSGTDFTLKISRVEAEDVGVYYCFQNTHTPRTFGGGTKVEIK
B1: no binding (tested: 10 µg/ml) [1].

B2: Fab^2 cMETCD47-L2-L2 (bispecific antibody)
heavy: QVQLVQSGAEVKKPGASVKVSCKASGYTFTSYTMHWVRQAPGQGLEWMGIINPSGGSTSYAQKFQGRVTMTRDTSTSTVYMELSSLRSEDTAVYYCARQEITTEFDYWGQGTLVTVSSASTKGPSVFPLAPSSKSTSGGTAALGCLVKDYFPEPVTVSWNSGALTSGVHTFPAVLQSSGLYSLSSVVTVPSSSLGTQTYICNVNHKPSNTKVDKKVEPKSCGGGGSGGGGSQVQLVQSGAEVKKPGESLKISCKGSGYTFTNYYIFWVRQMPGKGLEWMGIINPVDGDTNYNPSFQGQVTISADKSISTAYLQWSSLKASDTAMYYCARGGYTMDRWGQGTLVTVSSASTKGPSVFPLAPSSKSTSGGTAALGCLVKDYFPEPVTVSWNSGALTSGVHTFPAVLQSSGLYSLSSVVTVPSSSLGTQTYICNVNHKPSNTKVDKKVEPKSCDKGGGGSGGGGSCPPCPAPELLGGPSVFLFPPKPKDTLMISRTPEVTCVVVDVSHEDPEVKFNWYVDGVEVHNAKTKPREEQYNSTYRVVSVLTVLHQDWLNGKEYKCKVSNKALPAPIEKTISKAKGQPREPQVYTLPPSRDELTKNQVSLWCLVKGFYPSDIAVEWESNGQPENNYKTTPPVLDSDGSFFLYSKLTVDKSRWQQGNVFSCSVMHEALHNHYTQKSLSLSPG
light: EIVLTQSPGTLSLSPGERATLSCRASQSVSSYANSYLHWYQQKPGQAPRLLIYRGSTRESGIPDRFSGSGSGTDFTLTISRLEPEDFAVYYCQQSKSEPLTFGGGTKVEIKRTVAAPSVFIFPPSDEQLKSGTASVVCLLNNFYPREAKVQWKVDNALQSGNSQESVTEQDSKDSTYSLSSTLTLSKADYEKHKVYACEVTHQGLSSPVTKSFNRGECGGGGSGGGGSDIVMTQSPLSLPVTPGEPASISCRSSQSLLHSNGYNYLHWYLQKPGQSPQLLIYKVSNRLSGVPDRFSGSGSGTDFTLKISRVEAEDVGVYYCFQNTHTPRTFGGGTKVEIKRTVAAPSVFIFPPSDEQLKSGTASVVCLLNNFYPREAKVQWKVDNALQSGNSQESVTEQDSKDSTYSLSSTLTLSKADYEKHKVYACEVTHQGLSSPVTKSFNRGECGGGGSGGGGSCPPCPAPELLGGPSVFLFPPKPKDTLMISRTPEVTCVVVDVSHEDPEVKFNWYVDGVEVHNAKTKPREEQYNSTYRVVSVLTVLHQDWLNGKEYKCKVSNKALPAPIEKTISKAKGQPREPQVYTLPPSRDELTKNQVSLSCAVKGFYPSDIAVEWESNGQPENNYKTTPPVLDSDGSFFLVSKLTVDKSRWQQGNVFSCSVMHEALHNHYTQKSLSLSPG
B2 was tested, and the “fold reduction of ability to induce agglutination in comparison to A-D5 IgG1” value [2] was over 241 fold.

B3: A-D5 anti-CD47 IgG1 (antibody, V domains shown)
VH: QVQLVQSGAEVKKPGESLKISCKGSGYTFTNYYIFWVRQMPGKGLEWMGIINPVDGDTNYNPSFQGQVTISADKSISTAYLQWSSLKASDTAMYYCARGGYTMDRWGQGTLVTVSS
VL: DIVMTQSPLSLPVTPGEPASISCRSSQSLLHSNGYNYLHWYLQKPGQSPQLLIYKVSNRLSGVPDRFSGSGSGTDFTLKISRVEAEDVGVYYCFQNTHTPRTFGGGTKVEIK
notes: also called A-D5 IgG1; A-D5 CD47 IgG
Work on B3 yielded a Kd [3] of 1.32 nM, a koff [3] of 0.00103 s⁻¹ and a kon [3] of 775000 M⁻¹ s⁻¹. It also gave a Kd [4] of 1.29 nM, a koff [4] of 0.00107 s⁻¹ and a kon [4] of 833000 M⁻¹ s⁻¹.

B4: Fab^2 cMETCD47-LHL-LHL (bispecific antibody)
heavy: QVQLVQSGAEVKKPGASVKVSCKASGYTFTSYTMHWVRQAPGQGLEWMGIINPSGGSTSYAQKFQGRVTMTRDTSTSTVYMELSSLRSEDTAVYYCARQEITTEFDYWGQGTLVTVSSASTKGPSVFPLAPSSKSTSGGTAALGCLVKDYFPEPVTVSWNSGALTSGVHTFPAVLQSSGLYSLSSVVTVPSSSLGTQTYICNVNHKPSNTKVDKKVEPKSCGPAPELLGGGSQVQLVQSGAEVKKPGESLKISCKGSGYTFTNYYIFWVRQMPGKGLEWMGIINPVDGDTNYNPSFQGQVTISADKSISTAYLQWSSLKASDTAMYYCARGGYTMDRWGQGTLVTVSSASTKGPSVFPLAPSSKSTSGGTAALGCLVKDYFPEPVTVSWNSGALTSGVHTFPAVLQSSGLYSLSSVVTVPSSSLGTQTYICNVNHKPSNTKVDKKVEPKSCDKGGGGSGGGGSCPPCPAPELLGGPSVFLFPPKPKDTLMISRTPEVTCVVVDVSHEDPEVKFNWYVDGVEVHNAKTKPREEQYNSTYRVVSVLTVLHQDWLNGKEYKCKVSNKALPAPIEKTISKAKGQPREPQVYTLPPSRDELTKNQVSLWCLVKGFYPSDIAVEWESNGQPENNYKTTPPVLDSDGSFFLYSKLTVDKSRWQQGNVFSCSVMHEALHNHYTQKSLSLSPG
light: EIVLTQSPGTLSLSPGERATLSCRASQSVSSYANSYLHWYQQKPGQAPRLLIYRGSTRESGIPDRFSGSGSGTDFTLTISRLEPEDFAVYYCQQSKSEPLTFGGGTKVEIKRTVAAPSVFIFPPSDEQLKSGTASVVCLLNNFYPREAKVQWKVDNALQSGNSQESVTEQDSKDSTYSLSSTLTLSKADYEKHKVYACEVTHQGLSSPVTKSFNRGECGPAPELLGGGSDIVMTQSPLSLPVTPGEPASISCRSSQSLLHSNGYNYLHWYLQKPGQSPQLLIYKVSNRLSGVPDRFSGSGSGTDFTLKISRVEAEDVGVYYCFQNTHTPRTFGGGTKVEIKRTVAAPSVFIFPPSDEQLKSGTASVVCLLNNFYPREAKVQWKVDNALQSGNSQESVTEQDSKDSTYSLSSTLTLSKADYEKHKVYACEVTHQGLSSPVTKSFNRGECGGGGSGGGGSCPPCPAPELLGGPSVFLFPPKPKDTLMISRTPEVTCVVVDVSHEDPEVKFNWYVDGVEVHNAKTKPREEQYNSTYRVVSVLTVLHQDWLNGKEYKCKVSNKALPAPIEKTISKAKGQPREPQVYTLPPSRDELTKNQVSLSCAVKGFYPSDIAVEWESNGQPENNYKTTPPVLDSDGSFFLVSKLTVDKSRWQQGNVFSCSVMHEALHNHYTQKSLSLSPG
notes: also called Met47-LHL-LHL; clone 6
B4 was tested, and the “fold reduction of ability to induce agglutination in comparison to A-D5 IgG1” value [2] was over 241 fold, the “fold reduction of ability to bind CD47 in comparison to A-D5 IgG1” value [5] was over 1000 fold and the binding result [6] was “binds”.
